Measured values as given in publication PMC10159993.

Tests used:
[1] = biological target: H2AK119-biotinylated 185 bp nucleosome; test: FRET or BRET
[2] = biological target: KDM2A(2–685) (human) (UniProt Q9Y2K7); test: FRET or BRET

| fold reduction of binding affinity against wild-type KDM2A [1] | ratio of IC50 (147 bp over 185 bp nucleosome as competitor) [2] | Substance |
| --- | --- | --- |
| 20 fold |  | KDM2A(2–685) K99E/R105E/R128E/R152E (from UniProt Q9Y2K7 2-685) (domain or fragment) |
| 4 fold |  | KDM2A(2–685) R152E (from UniProt Q9Y2K7 2-685) (domain or fragment) |
|  | 10 fold | unmodified wild-type 147 bp nucleosome (complex) |
